Measured values as given in US6919086B1, “Graminae pollen allergen mutants for specific immunotherapy, and production and use of the same” (Merck Patent Gesellschaft mit, priority 1997, dated 2005).
Like-named read-outs stand apart in the source and are kept apart here.

Key:
[1] = tested on: IgE antibodies of allergic patients; experiment: EAST inhibition test (IgE reactivity / allergenicity); format: binding, human; conditions: for IC50: read-out: Inhibition value 50% (concentration of the inhibitor at 50% inhibition); for Allergenic potency (Prel) 25%: relative to native Phl p 5b at 25% inhibition; for Allergenic potency (Prel) 50%: relative to native Phl p 5b at 50% inhibition; for EAST inhibition curve / inhibitory effect (in words): serum pool Bor 18/100 (20 donors), FIG. 1; for Allergenicity from EAST inhibition curves (in words): serum pool We 6/97 and individual sera II3, II12, II17, FIGS. 2-5
Outline: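 Plates coated with natural or recombinant Ph1 p 5 or Ph1 p 5b (1 μg/ml), BSA-blocked, incubated with allergic patient sera (pool of 10-30 donors or individual) plus soluble allergen mutants as inhibitors. Bound IgE detected by enzyme-coupled anti-IgE; inhibition curves referenced to purified natural Ph1 p 5b.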

[2] = tested on: Phl p 5b-reactive T cell clones (TCCs) from allergic patients; experiment: Proliferative reaction of Phl p 5b-reactive T cell clones ([3H]-thymidine incorporation); format: cell-based, human; conditions: final concentration 0.3 μM
Outline: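 T cell clones from grass-pollen-allergic patients, specific for regions A, B and C, were cultured with irradiated autologous APCs and recombinant Phl p 5b mutants in triplicate. After 56 h, [3H]-thymidine was added and counted after another 16 h. Stimulation index is cpm with antigen over cpm without, with ≥5 rated positive.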

[3] = tested on: Phl p 5b-reactive T cell lines (TCLs) from allergic patients; experiment: Proliferative reaction of Phl p 5b-reactive oligoclonal T cell lines ([3H]-thymidine incorporation); format: cell-based, human; conditions: secondary activator 0.3 μM; for Incorporation of [3H]-thymidine into TCL 5 17.4 (stimulation index class): primary stimulator r Phl p 5; for Incorporation of [3H]-thymidine into TCL 7 19.2 (stimulation index class) / Incorporation of [3H]-thymidine into TCL 8 20.1 (stimulation index class): primary stimulator r Phl p 5b
Outline: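 T cell lines from grass-pollen-allergic patients were raised by repeated stimulation with Phl p 5b allergens. TCL blasts (2×10^4/ml) were cultured with irradiated autologous APCs (5×10^4/ml) and 10-20 μg antigen for 56 h, then given [3H]-thymidine for 16 h. Stimulation index is cpm with antigen over cpm without.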

[4] = biological target: IgE antibodies of the allergic patient serum pool We 6/97; experiment: EAST inhibition, serum pool We 6/97
[5] = biological target: IgE antibodies of the allergic patient serum pool Bor 18/100 (20 donors); experiment: EAST inhibition, serum pool Bor 18/100
[6] = allergic patient serum pool Bor 18/100
[7] = allergic patient serum pool We 6/97
[8] = individual allergic patient serum II/3
[9] = individual allergic patient serum II/12
[10] = individual allergic patient serum II/17

B1: rPhl p 5b point mutant PM1 (N32D, D49L, K50A) (protein)
chain: ADAGYAPATPAAAGAAAGKATTEEQKLIEDIDVGFKAAVAAAASVPAALAFKTFEAAFTSSSKAAAAKAPGLVPKLDAAYSVAYKAAVGATPEAKFDSFVASLTEALRVIAGALEVHAVKPVTEEPGMAKIPAGELQIIDKIDAAFKVAATAAATAPADDKFTVFEAAFNKAIKESTGGAYDTYKCIPSLEAAVKQAYAATVAAAPQVKYAVFEAALTKAITAMSEVQKVSQPATGAATVAAGAATTAAGAASGAATVAAGGYKV
Inhibition value 25% (concentration of the inhibitor at 25% inhibition) [1, 6]: 4.5e-10 mol/L
IC50 [1, 6]: 12 nM
Inhibition value 25% (concentration of the inhibitor at 25% inhibition) [1, 7]: 1.2e-09 mol/L
IC50 [1, 7]: 120 nM
Inhibition value 25% (concentration of the inhibitor at 25% inhibition) [1, 8]: 8.6e-10 mol/L
IC50 [1, 8]: 19 nM
Inhibition value 25% (concentration of the inhibitor at 25% inhibition) [1, 9]: 1.3e-09 mol/L
IC50 [1, 9]: 83 nM
Inhibition value 25% (concentration of the inhibitor at 25% inhibition) [1, 10]: 6.4e-10 mol/L
IC50 [1, 10]: 2.2 nM
Allergenic potency (Prel) 25% ([1]; individual serum II/3): 0.5950
Allergenic potency (Prel) 25% ([1]; individual serum II/12): 0.391
Allergenic potency (Prel) 25% ([1]; individual serum II/17): 0.336
Allergenic potency (Prel) 25% ([1]; serum pool Bor 18/100): 0.739
Allergenic potency (Prel) 25% ([1]; serum pool We 6/97): 0.415
Allergenic potency (Prel) 50% ([1]; individual serum II/3): 0.3140
Allergenic potency (Prel) 50% ([1]; individual serum II/12): 0.082
Allergenic potency (Prel) 50% ([1]; individual serum II/17): 0.1190
Allergenic potency (Prel) 50% ([1]; serum pool Bor 18/100): 0.3490
Allergenic potency (Prel) 50% ([1]; serum pool We 6/97): 0.0510
EAST inhibition curve / inhibitory effect (in words) [1]: exhibits this effect in the higher range to a somewhat greater degree
Allergenicity from EAST inhibition curves (in words) [1]: either no reduction, or only a reduction which is for the most part slight
Incorporation of [3H]-thymidine into TCC CB 2 (stimulation index class) ([2]; T cell-reactive region A): +++ (>10 (+++))
Incorporation of [3H]-thymidine into TCC CB 14 (stimulation index class) ([2]; T cell-reactive region A): +++ (>10 (+++))
Incorporation of [3H]-thymidine into TCC JR 13 (stimulation index class) ([2]; T cell-reactive region A): +++ (>10 (+++))
Incorporation of [3H]-thymidine into TCC JR 15 (stimulation index class) ([2]; T cell-reactive region A): ++ (5-10 (++))
Incorporation of [3H]-thymidine into TCC DW8 (stimulation index class) ([2]; T cell-reactive region B): + (1-2 (+))
Incorporation of [3H]-thymidine into TCC UZH2 (stimulation index class) ([2]; T cell-reactive region B): +++ (>10 (+++))
Incorporation of [3H]-thymidine, stimulation index SI, 3rd exp. ([2]; T cell-reactive region C): 1.1
Incorporation of [3H]-thymidine, stimulation index class (last column, no head) ([2]; T cell-reactive region C): − (<1 (−))
Incorporation of [3H]-thymidine into TCL 1 Wöl (stimulation index class) ([3]; primary stimulator n Phl p 5): + (1-2 (+))
Incorporation of [3H]-thymidine into TCL 3 Fre (stimulation index class) ([3]; primary stimulator n Phl p 5): + (1-2 (+))
Incorporation of [3H]-thymidine into TCL 5 17.4 (stimulation index class) [3]: + (1-2 (+))
Incorporation of [3H]-thymidine into TCL 6 Mah (stimulation index class) ([3]; primary stimulator r Phl p 5a, r Phl p 5b): ++ (5-10 (++))
Incorporation of [3H]-thymidine into TCL 7 19.2 (stimulation index class) [3]: +++ (>10 (+++))
Incorporation of [3H]-thymidine into TCL 8 20.1 (stimulation index class) [3]: +++ (>10 (+++))
IC50 [4]: 120 nM
allergenic potency (Prel) at 25% inhibition (relative to native Phl p 5b) [4]: 0.415
allergenic potency (Prel) at 50% inhibition (relative to native Phl p 5b) [4]: 0.051
inhibition value (inhibitor concentration at 25% inhibition) [4]: 1.2e-09 mol/L
IC50 [5]: 12 nM
allergenic potency (Prel) at 25% inhibition (relative to native Phl p 5b) [5]: 0.739
allergenic potency (Prel) at 50% inhibition (relative to native Phl p 5b) [5]: 0.349
inhibition value (inhibitor concentration at 25% inhibition) [5]: 4.5e-10 mol/L

B2: rPhl p 5b point mutant PM3 (A13C) (protein)
chain: ADAGYAPATPAACGAAAGKATTEEQKLIEDINVGFKAAVAAAASVPAADKFKTFEAAFTSSSKAAAAKAPGLVPKLDAAYSVAYKAAVGATPEAKFDSFVASLTEALRVIAGALEVHAVKPVTEEPGMAKIPAGELQIIDKIDAAFKVAATAAATAPADDKFTVFEAAFNKAIKESTGGAYDTYKCIPSLEAAVKQAYAATVAAAPQVKYAVFEAALTKAITAMSEVQKVSQPATGAATVAAGAATTAAGAASGAATVAAGGYKV
Inhibition value 25% (concentration of the inhibitor at 25% inhibition) [1, 6]: 2e-10 mol/L
IC50 [1, 6]: 4.8 nM
Inhibition value 25% (concentration of the inhibitor at 25% inhibition) [1, 7]: 8.3e-10 mol/L
IC50 [1, 7]: 30 nM
Inhibition value 25% (concentration of the inhibitor at 25% inhibition) [1, 8]: 5.5e-10 mol/L
IC50 [1, 8]: 15 nM
Inhibition value 25% (concentration of the inhibitor at 25% inhibition) [1, 9]: 1.3e-09 mol/L
IC50 [1, 9]: 91 nM
Inhibition value 25% (concentration of the inhibitor at 25% inhibition) [1, 10]: 2.5e-10 mol/L
IC50 [1, 10]: 5.5 nM
Allergenic potency (Prel) 25% ([1]; individual serum II/3): 0.9220
Allergenic potency (Prel) 25% ([1]; individual serum II/12): 0.389
Allergenic potency (Prel) 25% ([1]; individual serum II/17): 0.855
Allergenic potency (Prel) 25% ([1]; serum pool Bor 18/100): 1.641
Allergenic potency (Prel) 25% ([1]; serum pool We 6/97): 0.611
Allergenic potency (Prel) 50% ([1]; individual serum II/3): 0.3990
Allergenic potency (Prel) 50% ([1]; individual serum II/12): 0.075
Allergenic potency (Prel) 50% ([1]; individual serum II/17): 0.4680
Allergenic potency (Prel) 50% ([1]; serum pool Bor 18/100): 0.8640
Allergenic potency (Prel) 50% ([1]; serum pool We 6/97): 0.2030
EAST inhibition curve / inhibitory effect (in words) [1]: binding curves which are similar to that obtained with natural Ph1 p 5b
Allergenicity from EAST inhibition curves (in words) [1]: either no reduction, or only a reduction which is for the most part slight
Incorporation of [3H]-thymidine into TCC CB 2 (stimulation index class) ([2]; T cell-reactive region A): +++ (>10 (+++))
Incorporation of [3H]-thymidine into TCC JR 13 (stimulation index class) ([2]; T cell-reactive region A): +++ (>10 (+++))
Incorporation of [3H]-thymidine into TCC UZH2 (stimulation index class) ([2]; T cell-reactive region B): +++ (>10 (+++))
Incorporation of [3H]-thymidine, stimulation index SI, 1st exp. ([2]; T cell-reactive region C): 7.4
Incorporation of [3H]-thymidine, stimulation index SI, 2nd exp. ([2]; T cell-reactive region C): 5.9
Incorporation of [3H]-thymidine, stimulation index SI, 3rd exp. ([2]; T cell-reactive region C): 4.5
Incorporation of [3H]-thymidine, stimulation index class (last column, no head) ([2]; T cell-reactive region C): ++ (5-10 (++))
Incorporation of [3H]-thymidine into TCL 3 Fre (stimulation index class) ([3]; primary stimulator n Phl p 5): + (1-2 (+))
Incorporation of [3H]-thymidine into TCL 4 Mer (stimulation index class) ([3]; primary stimulator n Phl p 5): + (1-2 (+))
Incorporation of [3H]-thymidine into TCL 5 17.4 (stimulation index class) [3]: + (1-2 (+))
Incorporation of [3H]-thymidine into TCL 7 19.2 (stimulation index class) [3]: +++ (>10 (+++))
Incorporation of [3H]-thymidine into TCL 8 20.1 (stimulation index class) [3]: + (1-2 (+))
IC50 [4]: 30 nM
allergenic potency (Prel) at 25% inhibition (relative to native Phl p 5b) [4]: 0.611
allergenic potency (Prel) at 50% inhibition (relative to native Phl p 5b) [4]: 0.203
inhibition value (inhibitor concentration at 25% inhibition) [4]: 8.3e-10 mol/L
IC50 [5]: 4.8 nM
allergenic potency (Prel) at 25% inhibition (relative to native Phl p 5b) [5]: 1.64
allergenic potency (Prel) at 50% inhibition (relative to native Phl p 5b) [5]: 0.864
inhibition value (inhibitor concentration at 25% inhibition) [5]: 2e-10 mol/L
